Measurements: patent US20230380451A1, “MEANS AND METHODS TO DETOXIFY MYCOTOXINS” (priority 2020, published 2023)

B1: ADH-Lk: artificial amino acid sequence, variant of a wild type alcohol dehydrogenase (protein)
chain: MTDRLKGKVAIVTGGTHGIGLAIATKFVTEGAKVVITGRRADVGEKAAKSIGGTDVIRFVQHDVSDEAGWGKLFDTTEETFGPVTTLVNNAGIGYRKSVEDTTTEEWRKLLSVNLDGVFFGTRLGIQRMKCKGLGASIINMSSILGQVGDPATGAYSASKGAVRIMSKSAALLCALKDYDVRVNTVHPGPIKTPLMDDMPGAEEMMSQRTKTPMGHIGEPNDIAWVCVYLASDESKFATGAEFVVDGGYTAQ
modifications: ADH-Lk

What was measured:
[1] = test system: translation of firefly luciferase; type: biochemical
Procedure: To determine whether or not the conversion of DON into epi-THS through Akr I-III and the conversion of DON into THS through ADH-Lk, as described herein, leads to a decrease in toxicity, two assays were performed. The in vitro TNT® Quick Coupled Transcription/Translation System (Promega) was used to measure how well the metabolites inhibit protein synthesis and the CeIITox™ Green Cytotoxicity Assay (Promega; […].
For the in vitro transcription/translation assay, 40 μl of the TNT T7 quick master mix were mixed with 2 μl firefly luciferase encoding DNA and with 4 μl metabolites to obtain final concentrations from 0.01 μM-150 μM in the reaction. Reactions lacking metabolites were the reference for maximum luminescence output. Reactions were incubated at 30° C. for 90 min to allow for transcription of luciferase gene and subsequent translation. In an opaque (white) 96-well plate (Greiner Bio One) 100 μl Luciferase reagent where mixed with 4 μl of the reactions and immediately placed into a Synergy HT plate reader (Biotek) to read luminescence with a 2 sec and a 10 sec measurement delay. […].

[2] = DON transformation assay with ADH-Lk; type: biochemical; conditions: for DON / THS [peak area]: 30° C.
Procedure: . All components of the reaction except of isopropanol and NADP+ were mixed on ice and a 0 minutes sample was removed (mix sample 1:1 (v/v) with 100% methanol to stop any reaction). Immediately thereafter, reaction mixtures were transferred to the heating block and the reaction was started by adding NADP+ and IPA. The reaction was allowed to proceed for 22 hours at 30° C. A control reaction with the same set up, but lacking the enzyme was set up in parallel. Samples were removed in regular intervals in order to monitor the progression of the reaction and immediately mixed 1:1 (v/v) with 100% methanol to stop the reaction. They were subsequently analyzed using the HPLC-MS/MS method described in below.
For HPLC-MS/MS analysis, DON and THS were separated on a 150 mm×2.1 mm Phenomenex Kinetex Biphenyl column with a particle size of 2.6 μm. The mobile phase consisted of a mixture of methanol and ultrapure water with 0.1% (v/v) acetic acid. Ions were generated using electro spray ionization (ESI) in negative ionization mode. The quantification is done using a QTrap and/or triple quadrupole mass detector. […].

Molecule	times weaker effect on luminescence output compared to DON [1]	DON ([2]; time 0 h) [µg/L]	DON ([2]; time 3.5 h) [µg/L]	THS [peak area] ([2]; time 3.5 h)	DON ([2]; time 22 h) [µg/L]	THS [peak area] ([2]; time 22 h)	production of THS from DON ([2]; presence of enzyme in the reaction)
8-amino-DON [Akr 8-amino-DON]	5-10 times	–	–	–	–	–	–
B1	–	399.9	387.1	7.88E+03	296.6	1.13E+05	leads to the production of THS from DON
